Five molecules from patent US20220340635A1 (ZHEJIANG DOER BIOLOGICS, published 2022) can be followed below.

Residue numbers refer to the chain shown, from its start.

First the molecules themselves.
B1: A352L1F8L5W (Fc fusion)
chain: HSQGTFTSDYSKYLDSQAAQDFVQWLLAGGPSSGAPPPSGGGGSGGGGSGGGGSAESKYGPPCPPCPAPEAAGGPSVFLFPPKPKDTLMISRTPEVTCVVVDVSQEDPEVQFNWYVDGVEVHNAKTKPREEQFASTYRVVSVLTVLHQDWLNGKEYKCKVSNKGLPSSIEKTISKAKGQPREPQVYTLPPSQEEMTKNQVSLTCLVKGFYPSDIAVEWESNGQPENNYKTTPPVLDSDGSFFLYSRLTVDKSRWQEGNVFSCSVMHEALHNHYTQKSLSLSLGGGGGAGGGGAGGGGAHPIPDSSPLLQFGGQVRQRYLYTDDAQQTEAHLEIREDGTVGGAADQSPESLLQLKALKPGVIQILGVKTSRFLCQRPDGALYGSLHFDPEACSFRELLLEDGYNVYQSEAHGLPLHLPGNKSPHRDPAPRGPARFLPLPGLPPALPEPPGILAPQPPDVGSSDPLSMVGPSQGRSPSYAS
B2: A382L1F8L5M1 (Fc fusion)
chain: B1 chain with A28D, L396R, P469G, A478E
B3: A352L1F8L5M1 (Fc fusion)
chain: B1 chain with L396R, P469G, A478E
B4: A137L1F8L5M3 (Fc fusion)
chain: YSEGTFTSDYSKYLDSQAAQDFVQWLLDGGPSSGAPPPSGGGGSGGGGSGGGGSAESKYGPPCPPCPAPEAAGGPSVFLFPPKPKDTLMISRTPEVTCVVVDVSQEDPEVQFNWYVDGVEVHNAKTKPREEQFASTYRVVSVLTVLHQDWLNGKEYKCKVSNKGLPSSIEKTISKAKGQPREPQVYTLPPSQEEMTKNQVSLTCLVKGFYPSDIAVEWESNGQPENNYKTTPPVLDSDGSFFLYSRLTVDKSRWQEGNVFSCSVMHEALHNHYTQKSLSLSLGGGGGAGGGGAGGGGADSSPLLQFGGQVRQRYLYTDDAQQTEAHLEIREDGTVGGAADQSPESLLQLKALKPGVIQILGVKTSRFLCQRPDGALYGSLHFDPEACSFRELLLEDGYNVYQSEAHGLPLHCPGNKSPHRDPAPRGPCRFLPLPGLPPALPEPPGILAPQPPDVGSSDPLAMVGPSQGRSPSYAS
B5: A175L1F8L5M3 (Fc fusion)
chain: B4 chain with D28A

One assay has as its target β-klotho (KLB). Description: cell-based or functional assay.
On to B1, for which the “FGF21 activity (EC50, nM)” value was found to be 0.55 nM.
On the same count and under the same terms, the result for B2 reads 0.79 nM; that for B3, 0.79 nM.
Same read-out and setting: next, B4: 0.82 nM; B5: 0.63 nM.

The next assay has as its target GCGR. Description: cell-based or functional assay.
As to B1, the “GCGR agonist activity (EC50, nM)” value worked out at 1.22 nM.
On the same count and under the same terms, next, B2: 1.2 nM.
The same measure, in the same setting: the result for B3 reads 1.2 nM.
On the same count and under the same terms, next, B4: 41.2 nM; B5: 39.2 nM.

Another assay has as its target human GLP-1R (human, UniProt P43220 24-463). Description: cell-based or functional assay.
For B1, the “GLP-1R agonist activity (EC50, nM)” value worked out at 1.34 nM.
On the same count and under the same terms, the result for B2 reads 1.13 nM; that for B3, 1.13 nM; that for B4, 59.1 nM.
Turning to B5, the “GLP-1R agonist activity (EC50, nM)” value is 47.1 nM.
